Laboratory results reported in patent US6368863, “Reagents and methods for modulating gene expression through RNA mimicry” (ISIS Pharmaceuticals Inc.).

How the values were obtained:
Conditions in all cases: protein: synthetic; tags: synthetic 39-mer peptide made by solid phase synthesis, UCSF Biotechnology Resource Core; label: 5'-32P; hairpin with bulge
[1] = biological target: T1, Tat39 (Tat3B; HIV Tat residues 48-86) (HIV-1, UniProt P04608 P04608:48-86); experiment: EMSA; 50 pM oligo; 1:1 Kd; 2-3:1 Kd 8000-20000 nM; Krel 10
T1 chain: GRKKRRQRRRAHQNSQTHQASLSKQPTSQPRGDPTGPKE

[2] = biological target: T1, Tat39 (Tat3B; HIV Tat residues 48-86); experiment: EMSA; 5 pM oligo; 1:1 Kd; Krel 4
[3] = biological target: T1, Tat39 (Tat3B; HIV Tat residues 48-86); experiment: EMSA; 1:1 Kd; 2-3:1 Kd 200 nM; 10 mM Tris pH 7.5, 70 mM NaCl, 4 C
[4] = biological target: T1, Tat39 (Tat3B; HIV Tat residues 48-86); experiment: EMSA; 1:1 Kd; 2-3:1 Kd 30 nM; Krel 4
[5] = biological target: T1, Tat39 (Tat3B; HIV Tat residues 48-86); experiment: EMSA; 1:1 Kd; Krel 1

GCCAGAUCUGAGCCUGGGAGCUCUCUGGC (XNA, 2'-OMe, PS) [2'-OMe, P=S delta-TAR #2195 29-mer (16-45(-A17))]
Kd [1]: 4 nM
Kd [2]: < 10 nM

B1: TAR 59-mer (1-59) (ssRNA)
RNA: GGGUCUCUCUGGUUAGACCAGAUCUGAGCCUGGGAGCUCUCUGGCUAACUAGGGAACCC
Kd [3]: 40 nM

B2: A:P=S TAR 59-mer (1-59) (ssRNA)
RNA: GGGUCUCUCUGGUUAGACCAGAUCUGAGCCUGGGAGCUCUCUGGCUAACUAGGGAACCC
modifications: PS linkages at A residues
Kd [4]: < 10 nM

B3: 5-BrU TAR 59-mer (1-59) (ssRNA)
RNA: GGGUCUCUCUGGUUAGACCAGAUCUGAGCCUGGGAGCUCUCUGGCUAACUAGGGAACCC
modifications: 5-bromouridine in place of U
Kd [5]: 40 nM
